Assay results taken from the Human Domainome abundance scans (Beltran et al. 2025).
± gives the uncertainty stated by the source.

B1: Spectrin alpha chain, erythrocytic 1, residues 979 to 1036; numbered along this chain, P02549 (parent)
chain: EQRVMALYDFQARSPREVTMKKGDVLTLLSSINKDWWKVEAADHQGIVPAVYVRRLAH

Variants of: B1
Experiment: abundance fitness (aPCA) (normalised: wild type 0, dead -1); higher = more abundant; growth selection in yeast, the domain comes from the species named
Details: Homo sapiens

Row | Variant | abundance fitness
1 | EQRVMALYDFQARSPREVTMKKGDVLTLLSSINKDWWKVEAAQHQGIVPAVYVRRLAH [D43Q] | 0.413 ± 0.21
2 | EQRVMALYDFQARSPREVTMKKGDVLTLLSSINKDWWKVEAARHQGIVPAVYVRRLAH [D43R] | -0.708 ± 0.34
3 | EQRVMALYDFQARSPREVTMKKGDVLTLLSSINKDWWKVEAASHQGIVPAVYVRRLAH [D43S] | 0.096 ± 0.17
4 | EQRVMALYDFQARSPREVTMKKGDVLTLLSSINKDWWKVEAATHQGIVPAVYVRRLAH [D43T] | -0.223 ± 0.23
5 | EQRVMALYDFQARSPREVTMKKGDVLTLLSSINKDWWKVEAAVHQGIVPAVYVRRLAH [D43V] | -0.537 ± 0.23
6 | EQRVMALYDFQARSPREVTMKKGDVLTLLSSINKDWWKVEAAWHQGIVPAVYVRRLAH [D43W] | -0.622 ± 0.23
7 | EQRVMALYDFQARSPREVTMKKGDVLTLLSSINKDWWKVEAADAQGIVPAVYVRRLAH [H44A] | -0.051 ± 0.13
8 | EQRVMALYDFQARSPREVTMKKGDVLTLLSSINKDWWKVEAADCQGIVPAVYVRRLAH [H44C] | -0.016 ± 0.35
9 | EQRVMALYDFQARSPREVTMKKGDVLTLLSSINKDWWKVEAADGQGIVPAVYVRRLAH [H44G] | 0.292 ± 0.081
10 | EQRVMALYDFQARSPREVTMKKGDVLTLLSSINKDWWKVEAADKQGIVPAVYVRRLAH [H44K] | 0.555 ± 0.49
11 | EQRVMALYDFQARSPREVTMKKGDVLTLLSSINKDWWKVEAADLQGIVPAVYVRRLAH [H44L] | -0.692 ± 0.12
12 | EQRVMALYDFQARSPREVTMKKGDVLTLLSSINKDWWKVEAADMQGIVPAVYVRRLAH [H44M] | -0.039 ± 0.28
13 | EQRVMALYDFQARSPREVTMKKGDVLTLLSSINKDWWKVEAADPQGIVPAVYVRRLAH [H44P] | -0.95 ± 0.17
14 | EQRVMALYDFQARSPREVTMKKGDVLTLLSSINKDWWKVEAADQQGIVPAVYVRRLAH [H44Q] | 0.119 ± 0.2
15 | EQRVMALYDFQARSPREVTMKKGDVLTLLSSINKDWWKVEAADSQGIVPAVYVRRLAH [H44S] | 0.03 ± 0.1
16 | EQRVMALYDFQARSPREVTMKKGDVLTLLSSINKDWWKVEAADTQGIVPAVYVRRLAH [H44T] | -0.107 ± 0.23
17 | EQRVMALYDFQARSPREVTMKKGDVLTLLSSINKDWWKVEAADVQGIVPAVYVRRLAH [H44V] | -0.156 ± 0.12
18 | EQRVMALYDFQARSPREVTMKKGDVLTLLSSINKDWWKVEAADWQGIVPAVYVRRLAH [H44W] | -0.483 ± 0.23
19 | EQRVMALYDFQARSPREVTMKKGDVLTLLSSINKDWWKVEAADYQGIVPAVYVRRLAH [H44Y] | -0.804 ± 0.41
20 | EQRVMALYDFQARSPREVTMKKGDVLTLLSSINKDWWKVEAADHAGIVPAVYVRRLAH [Q45A] | -0.171 ± 0.13
21 | EQRVMALYDFQARSPREVTMKKGDVLTLLSSINKDWWKVEAADHCGIVPAVYVRRLAH [Q45C] | -0.103 ± 0.24
22 | EQRVMALYDFQARSPREVTMKKGDVLTLLSSINKDWWKVEAADHDGIVPAVYVRRLAH [Q45D] | -0.498 ± 0.27
23 | EQRVMALYDFQARSPREVTMKKGDVLTLLSSINKDWWKVEAADHEGIVPAVYVRRLAH [Q45E] | 0.039 ± 0.4

Row | Variant | abundance fitness
24 | EQRVMALYDFQARSPREVTMKKGDVLTLLSSINKDWWKVEAADHGGIVPAVYVRRLAH [Q45G] | -0.754 ± 0.16
25 | EQRVMALYDFQARSPREVTMKKGDVLTLLSSINKDWWKVEAADHIGIVPAVYVRRLAH [Q45I] | 0.027 ± 0.36
26 | EQRVMALYDFQARSPREVTMKKGDVLTLLSSINKDWWKVEAADHKGIVPAVYVRRLAH [Q45K] | 0.09 ± 0.12
27 | EQRVMALYDFQARSPREVTMKKGDVLTLLSSINKDWWKVEAADHLGIVPAVYVRRLAH [Q45L] | -0.713 ± 0.19
28 | EQRVMALYDFQARSPREVTMKKGDVLTLLSSINKDWWKVEAADHPGIVPAVYVRRLAH [Q45P] | -0.565 ± 0.28
29 | EQRVMALYDFQARSPREVTMKKGDVLTLLSSINKDWWKVEAADHRGIVPAVYVRRLAH [Q45R] | -0.037 ± 0.066
30 | EQRVMALYDFQARSPREVTMKKGDVLTLLSSINKDWWKVEAADHSGIVPAVYVRRLAH [Q45S] | -0.004 ± 0.094
31 | EQRVMALYDFQARSPREVTMKKGDVLTLLSSINKDWWKVEAADHTGIVPAVYVRRLAH [Q45T] | 0.516 ± 0.14
32 | EQRVMALYDFQARSPREVTMKKGDVLTLLSSINKDWWKVEAADHVGIVPAVYVRRLAH [Q45V] | 0.1 ± 0.17
33 | EQRVMALYDFQARSPREVTMKKGDVLTLLSSINKDWWKVEAADHWGIVPAVYVRRLAH [Q45W] | -0.889 ± 0.42
34 | EQRVMALYDFQARSPREVTMKKGDVLTLLSSINKDWWKVEAADHQCIVPAVYVRRLAH [G46C] | -0.361 ± 0.34
35 | EQRVMALYDFQARSPREVTMKKGDVLTLLSSINKDWWKVEAADHQEIVPAVYVRRLAH [G46E] | -0.023 ± 0.27
36 | EQRVMALYDFQARSPREVTMKKGDVLTLLSSINKDWWKVEAADHQKIVPAVYVRRLAH [G46K] | -0.459 ± 0.37
37 | EQRVMALYDFQARSPREVTMKKGDVLTLLSSINKDWWKVEAADHQLIVPAVYVRRLAH [G46L] | -0.227 ± 0.17
38 | EQRVMALYDFQARSPREVTMKKGDVLTLLSSINKDWWKVEAADHQRIVPAVYVRRLAH [G46R] | -0.58 ± 0.18
39 | EQRVMALYDFQARSPREVTMKKGDVLTLLSSINKDWWKVEAADHQSIVPAVYVRRLAH [G46S] | -1.04 ± 0.49
40 | EQRVMALYDFQARSPREVTMKKGDVLTLLSSINKDWWKVEAADHQVIVPAVYVRRLAH [G46V] | -1.03 ± 0.49
41 | EQRVMALYDFQARSPREVTMKKGDVLTLLSSINKDWWKVEAADHQWIVPAVYVRRLAH [G46W] | -0.452 ± 0.38
42 | EQRVMALYDFQARSPREVTMKKGDVLTLLSSINKDWWKVEAADHQYIVPAVYVRRLAH [G46Y] | -0.897 ± 0.25
43 | EQRVMALYDFQARSPREVTMKKGDVLTLLSSINKDWWKVEAADHQGAVPAVYVRRLAH [I47A] | -0.532 ± 0.32
44 | EQRVMALYDFQARSPREVTMKKGDVLTLLSSINKDWWKVEAADHQGCVPAVYVRRLAH [I47C] | -0.226 ± 0.41
45 | EQRVMALYDFQARSPREVTMKKGDVLTLLSSINKDWWKVEAADHQGEVPAVYVRRLAH [I47E] | -0.727 ± 0.43
46 | EQRVMALYDFQARSPREVTMKKGDVLTLLSSINKDWWKVEAADHQGFVPAVYVRRLAH [I47F] | 0.349 ± 0.21
